{"source": "patent US10143730B2", "about": "“Peptides and combination of peptides for use in immunotherapy against various cancers” (immatics biotechnologies GmbH, priority 2015, dated 2018)", "data": [{"target": "T1, HLA-A*02 (Homo sapiens, UniProt P04439, D140Y/D185E/D98H/E176V/E277Q/G131W/G231S/I119V/I121R/I166T/I218V/L300P/N151K/N90K/P208A/P217A/Q86G/Q94H/R138H/R169H)", "T1 construct": "made in house", "assay": "MHC binding assay, UV-ligand exchange with beta2m ELISA (peptide exchange yield)", "conditions": "binding to HLA-A*02", "source_text": "Candidate peptides for T cell based therapies according to the present invention were further tested for their MHC binding capacity (affinity). The individual peptide-MHC complexes were produced by UV-ligand exchange, where a UV-sensitive peptide is cleaved upon UV-irradiation, and exchanged with the peptide of interest as analyzed. Only peptide candidates that can effectively bind and stabilize the peptide-receptive MHC molecules prevent dissociation of the MHC complexes. To determine the yield of the exchange reaction, an ELISA was performed based on the detection of the light chain (β2m) of stabilized MHC complexes. The assay was performed as generally described in Rodenko et al. (Rodenko et al., 2006).\n96 well MAXISorp plates (NUNC) were coated over night with 2 ug/ml streptavidin in PBS at room temperature, washed 4× and blocked for 1h at 37° C. in 2% BSA containing blocking buffer. Refolded HLA-A*02:01/MLA-001 monomers served as standards, covering the range of 15-500 ng/ml. Peptide-MHC monomers of the UV-exchange reaction were diluted 100 fold in blocking buffer. Samples were incubated for 1h at 37° C., washed four times, incubated with 2 ug/ml HRP conjugated anti-32m for 1h at 37° C., washed again and detected with TMB solution that is stopped with […]. Absorption was measured at 450 nm. Candidate peptides that show a high exchange yield (preferably higher than 50%, most preferred higher than 75%) are generally preferred for a generation and production of antibodies or fragments thereof, and/or T cell receptors or fragments thereof, as they show sufficient avidity to the MHC molecules and prevent dissociation of the MHC complexes.", "values": [{"substance": "3 (KLEENGDLYL; listed as Homo sapiens) [compound 3]", "Peptide exchange (MHC class I binding score, peptide exchange yield)": "++++ (> = 75% = ++++)"}, {"substance": "9 (FLVDGSYSI; listed as Homo sapiens) [compound 9]", "Peptide exchange (MHC class I binding score, peptide exchange yield)": "+++ (50%-75% = +++)"}, {"substance": "10 (GIAGSLKTV; listed as Homo sapiens) [compound 10]", "Peptide exchange (MHC class I binding score, peptide exchange yield)": "+++ (50%-75% = +++)"}, {"substance": "13 (ALMAMLVYV; listed as Homo sapiens) [compound 13]", "Peptide exchange (MHC class I binding score, peptide exchange yield)": "++ (20%-49% = ++)"}, {"substance": "15 (YLDLSHNQL; listed as Homo sapiens) [compound 15]", "Peptide exchange (MHC class I binding score, peptide exchange yield)": "+++ (50%-75% = +++)"}, {"substance": "16 (YTLDIPVLFGV; listed as Homo sapiens) [compound 16]", "Peptide exchange (MHC class I binding score, peptide exchange yield)": "++++ (> = 75% = ++++)"}, {"substance": "19 (SISDNVWEV; listed as Homo sapiens) [compound 19]", "Peptide exchange (MHC class I binding score, peptide exchange yield)": "+++ (50%-75% = +++)"}, {"substance": "21 (AIQDEIRSV; listed as Homo sapiens) [compound 21]", "Peptide exchange (MHC class I binding score, peptide exchange yield)": "+++ (50%-75% = +++)"}, {"substance": "22 (FVDPNTQEKV; listed as Homo sapiens) [compound 22]", "Peptide exchange (MHC class I binding score, peptide exchange yield)": "++ (20%-49% = ++)"}, {"substance": "24 (TLDEKVAEL; listed as Homo sapiens) [compound 24]", "Peptide exchange (MHC class I binding score, peptide exchange yield)": "+++ (50%-75% = +++)"}, {"substance": "25 (TMDSVLVTV; listed as Homo sapiens) [compound 25]", "Peptide exchange (MHC class I binding score, peptide exchange yield)": "+++ (50%-75% = +++)"}, {"substance": "28 (SLPNGKPVSV; listed as Homo sapiens) [compound 28]", "Peptide exchange (MHC class I binding score, peptide exchange yield)": "+++ (50%-75% = +++)"}, {"substance": "30 (AMIEEVFEA; listed as Homo sapiens) [compound 30]", "Peptide exchange (MHC class I binding score, peptide exchange yield)": "++ (20%-49% = ++)"}, {"substance": "32 (VQLDSIEDLEV; listed as Homo sapiens) [compound 32]", "Peptide exchange (MHC class I binding score, peptide exchange yield)": "+++ (50%-75% = +++)"}, {"substance": "33 (YIKTELISV; listed as Homo sapiens) [compound 33]", "Peptide exchange (MHC class I binding score, peptide exchange yield)": "+++ (50%-75% = +++)"}, {"substance": "34 (FLLATEVVTV; listed as Homo sapiens) [compound 34]", "Peptide exchange (MHC class I binding score, peptide exchange yield)": "++++ (> = 75% = ++++)"}, {"substance": "36 (SLADTNSLAVV; listed as Homo sapiens) [compound 36]", "Peptide exchange (MHC class I binding score, peptide exchange yield)": "+++ (50%-75% = +++)"}, {"substance": "37 (ILAPFSVDL; listed as Homo sapiens) [compound 37]", "Peptide exchange (MHC class I binding score, peptide exchange yield)": "+++ (50%-75% = +++)"}, {"substance": "38 (FLGPRIIGL; listed as Homo sapiens) [compound 38]", "Peptide exchange (MHC class I binding score, peptide exchange yield)": "+++ (50%-75% = +++)"}, {"substance": "39 (HLLEGSVGV; listed as Homo sapiens) [compound 39]", "Peptide exchange (MHC class I binding score, peptide exchange yield)": "+++ (50%-75% = +++)"}, {"substance": "40 (VLIDPQWVLTA; listed as Homo sapiens) [compound 40]", "Peptide exchange (MHC class I binding score, peptide exchange yield)": "+++ (50%-75% = +++)"}, {"substance": "41 (ALFENTPKA; listed as Homo sapiens) [compound 41]", "Peptide exchange (MHC class I binding score, peptide exchange yield)": "++ (20%-49% = ++)"}, {"substance": "42 (LLDSVSRL; listed as Homo sapiens) [compound 42]", "Peptide exchange (MHC class I binding score, peptide exchange yield)": "+ (<20% = +)"}, {"substance": "44 (SLFETAWEA; listed as Homo sapiens) [compound 44]", "Peptide exchange (MHC class I binding score, peptide exchange yield)": "+++ (50%-75% = +++)"}, {"substance": "45 (SLTEVSLPL; listed as Homo sapiens) [compound 45]", "Peptide exchange (MHC class I binding score, peptide exchange yield)": "+++ (50%-75% = +++)"}, {"substance": "46 (SQFPLPLAV; listed as Homo sapiens) [compound 46]", "Peptide exchange (MHC class I binding score, peptide exchange yield)": "++ (20%-49% = ++)"}, {"substance": "47 (ALLERGELFV; listed as Homo sapiens) [compound 47]", "Peptide exchange (MHC class I binding score, peptide exchange yield)": "+++ (50%-75% = +++)"}, {"substance": "48 (QVIEDSTGV; listed as Homo sapiens) [compound 48]", "Peptide exchange (MHC class I binding score, peptide exchange yield)": "++ (20%-49% = ++)"}, {"substance": "49 (ALNIATHVL; listed as Homo sapiens) [compound 49]", "Peptide exchange (MHC class I binding score, peptide exchange yield)": "+++ (50%-75% = +++)"}, {"substance": "50 (ILFHGVFYA; listed as Homo sapiens) [compound 50]", "Peptide exchange (MHC class I binding score, peptide exchange yield)": "+++ (50%-75% = +++)"}, {"substance": "51 (LLFSRLCGA; listed as Homo sapiens) [compound 51]", "Peptide exchange (MHC class I binding score, peptide exchange yield)": "++++ (> = 75% = ++++)"}, {"substance": "53 (KMVGLVVAI; listed as Homo sapiens) [compound 53]", "Peptide exchange (MHC class I binding score, peptide exchange yield)": "+++ (50%-75% = +++)"}, {"substance": "54 (VLNPLITAV; listed as Homo sapiens) [compound 54]", "Peptide exchange (MHC class I binding score, peptide exchange yield)": "+++ (50%-75% = +++)"}, {"substance": "55 (SLATKIVEA; listed as Homo sapiens) [compound 55]", "Peptide exchange (MHC class I binding score, peptide exchange yield)": "+++ (50%-75% = +++)"}, {"substance": "56 (FLHDEKEGIYI; listed as Homo sapiens) [compound 56]", "Peptide exchange (MHC class I binding score, peptide exchange yield)": "+++ (50%-75% = +++)"}, {"substance": "57 (TVFTDHMLTV; listed as Homo sapiens) [compound 57]", "Peptide exchange (MHC class I binding score, peptide exchange yield)": "++ (20%-49% = ++)"}, {"substance": "58 (YLLPLLPAL; listed as Homo sapiens) [compound 58]", "Peptide exchange (MHC class I binding score, peptide exchange yield)": "+++ (50%-75% = +++)"}, {"substance": "59 (KLLDPQEFTL; listed as Homo sapiens) [compound 59]", "Peptide exchange (MHC class I binding score, peptide exchange yield)": "+++ (50%-75% = +++)"}, {"substance": "60 (ALFAPLVHL; listed as Homo sapiens) [compound 60]", "Peptide exchange (MHC class I binding score, peptide exchange yield)": "+++ (50%-75% = +++)"}, {"substance": "61 (AIVKEIVNI; listed as Homo sapiens) [compound 61]", "Peptide exchange (MHC class I binding score, peptide exchange yield)": "++ (20%-49% = ++)"}, {"substance": "62 (ALNPELVQA; listed as Homo sapiens) [compound 62]", "Peptide exchange (MHC class I binding score, peptide exchange yield)": "++ (20%-49% = ++)"}, {"substance": "63 (SQIPAQPSV; listed as Homo sapiens) [compound 63]", "Peptide exchange (MHC class I binding score, peptide exchange yield)": "++ (20%-49% = ++)"}, {"substance": "64 (SLFPDSLIV; listed as Homo sapiens) [compound 64]", "Peptide exchange (MHC class I binding score, peptide exchange yield)": "++ (20%-49% = ++)"}, {"substance": "65 (SVVPDVRSV; listed as Homo sapiens) [compound 65]", "Peptide exchange (MHC class I binding score, peptide exchange yield)": "++ (20%-49% = ++)"}, {"substance": "66 (KLIFSVEAV; listed as Homo sapiens) [compound 66]", "Peptide exchange (MHC class I binding score, peptide exchange yield)": "+++ (50%-75% = +++)"}, {"substance": "67 (TLLQRLTEV; listed as Homo sapiens) [compound 67]", "Peptide exchange (MHC class I binding score, peptide exchange yield)": "+++ (50%-75% = +++)"}, {"substance": "68 (SLSNRLYYL; listed as Homo sapiens) [compound 68]", "Peptide exchange (MHC class I binding score, peptide exchange yield)": "+++ (50%-75% = +++)"}, {"substance": "69 (FLAVGLVDV; listed as Homo sapiens) [compound 69]", "Peptide exchange (MHC class I binding score, peptide exchange yield)": "+++ (50%-75% = +++)"}, {"substance": "70 (LLLGDSALYL; listed as Homo sapiens) [compound 70]", "Peptide exchange (MHC class I binding score, peptide exchange yield)": "+++ (50%-75% = +++)"}, {"substance": "71 (VLHSKFWVV; listed as Homo sapiens) [compound 71]", "Peptide exchange (MHC class I binding score, peptide exchange yield)": "+++ (50%-75% = +++)"}, {"substance": "72 (FLTAINYLL; listed as Homo sapiens) [compound 72]", "Peptide exchange (MHC class I binding score, peptide exchange yield)": "+++ (50%-75% = +++)"}, {"substance": "73 (YTLREVDTV; listed as Homo sapiens) [compound 73]", "Peptide exchange (MHC class I binding score, peptide exchange yield)": "++ (20%-49% = ++)"}, {"substance": "74 (TLFGYSVVL; listed as Homo sapiens) [compound 74]", "Peptide exchange (MHC class I binding score, peptide exchange yield)": "+++ (50%-75% = +++)"}, {"substance": "75 (AVIKFLELL; listed as Homo sapiens) [compound 75]", "Peptide exchange (MHC class I binding score, peptide exchange yield)": "+++ (50%-75% = +++)"}, {"substance": "76 (AVGPVHNSV; listed as Homo sapiens) [compound 76]", "Peptide exchange (MHC class I binding score, peptide exchange yield)": "++ (20%-49% = ++)"}, {"substance": "77 (TLIDEQDIPLV; listed as Homo sapiens) [compound 77]", "Peptide exchange (MHC class I binding score, peptide exchange yield)": "+++ (50%-75% = +++)"}, {"substance": "78 (TVVTRLDEI; listed as Homo sapiens) [compound 78]", "Peptide exchange (MHC class I binding score, peptide exchange yield)": "++ (20%-49% = ++)"}, {"substance": "79 (VTFKEYVTV; listed as Homo sapiens) [compound 79]", "Peptide exchange (MHC class I binding score, peptide exchange yield)": "++ (20%-49% = ++)"}, {"substance": "80 (KLYEADFVL; listed as Homo sapiens) [compound 80]", "Peptide exchange (MHC class I binding score, peptide exchange yield)": "++ (20%-49% = ++)"}, {"substance": "81 (NALDKVLSV; listed as Homo sapiens) [compound 81]", "Peptide exchange (MHC class I binding score, peptide exchange yield)": "+++ (50%-75% = +++)"}, {"substance": "82 (FIFDEAEKL; listed as Homo sapiens) [compound 82]", "Peptide exchange (MHC class I binding score, peptide exchange yield)": "+ (<20% = +)"}, {"substance": "83 (GQASYFYVA; listed as Homo sapiens) [compound 83]", "Peptide exchange (MHC class I binding score, peptide exchange yield)": "++ (20%-49% = ++)"}]}]}
